Measured values as given in paper PMC5069464.

What was measured:
Conditions in all cases: glycan lost; control: wild type
[1] = whole-cell pre-pulse protocol, Boltzmann fit
[2] = high-throughput patch (IonWorks Barracuda), peak current
[3] = puromycin chase, >250 kDa band at 48 hr
[4] = whole-cell tail currents, Boltzmann fit
[5] = cell-attached single-channel recording, tsA201

Question: Which results are given for hCaV3.3 α1 subunit: R1346H?
Answer: other: voltage dependence of inactivation, other: V1/2 [1]: no change, −69.4 ± 1.4 vs −67.1 ± 0.89; other: channel current, other: median peak current [2]: decreases, 0.56 vs 1.30; degradation_or_half_life, other: fraction of pre-puromycin level [3]: no change, 0.50 ± 0.12 vs 0.36 ± 0.08; other: voltage dependence of activation, other: V1/2-negative [4]: no change, −37.6 ± 0.99 vs −40.0 ± 0.98; other: single-channel conductance, other: conductance [5]: no change, 13.7 ± 0.6 vs 14.0 ± 0.8
